First the molecules themselves.
B1: YWO.49.H2-MC-vc-PAB-MMAF (antibody, V domains shown)
VH: EVQLVESGGGLVQPGGSLRLSCAASGFTITNYGIHWVRQAPGKGLEWVGRIYPDSGATYYADSVKGRFTISADTSKNTAYLQMNSLRAEDTAVYYCARKLWVSLAPMDYWGQGTLVTVSS
VL: DIQMTQSPSSLSASVGDRVTITCRASQDVSTAVAWYQQKPGKAPKLLIYSASFLYSGVPSRFSGSGSGTDFTLTISSLQPEDFATYYCQQSYGTPFIFGQGTKVEIKR
modifications: MC-vc-PAB-MMAF conjugated to cysteine residues of the partially reduced antibody; average drug load 4.7 per antibody
B2: YWO.49.H6-MC-vc-PAB-MMAF (antibody, V domains shown)
VH: B1 VH with V102I, L104I, P106G
VL: B1 VL with Q90H, G93A, I97T
modifications: MC-vc-PAB-MMAF conjugated to cysteine residues of the partially reduced antibody; average drug load 4.4 per antibody
B3: YWO.49.H2-MC-vc-PAB-MMAE (antibody, V domains shown)
VH: B1 VH
VL: B1 VL
modifications: MC-vc-PAB-MMAE conjugated to cysteine residues of the partially reduced antibody; average drug load 3.8 per antibody
B4: YWO.49.H6-MC-vc-PAB-MMAE (antibody, V domains shown)
VH: B1 VH with V102I, L104I, P106G
VL: B1 VL with Q90H, G93A, I97T
modifications: MC-vc-PAB-MMAE conjugated to cysteine residues of the partially reduced antibody; average drug load 4.4 per antibody
B5: YWO.49.H6 (antibody, V domains shown)
VH: B1 VH with V102I, L104I, P106G
VL: B1 VL with Q90H, G93A, I97T
notes: also called YWO.H6
B6: YWO.49 (antibody, V domains shown)
VH: B1 VH with L104R, P106G
VL: B1 VL with G93T, F96P, I97T
notes: detected with anti-human IgG; also called anti-TAT226 monoclonal antibody YWO.49
B7: YWO.49.H2 (antibody, V domains shown)
VH: B1 VH
VL: B1 VL
B8: YWO.49.C9 (antibody, V domains shown)
VH: B1 VH with S103T, P106S
VL: B1 VL with Q90K, G93N, F96P, I97T
B9: YWO.49.B7 (antibody, V domains shown)
VH: B1 VH with P106A
VL: B1 VL with Q90R, Y92V, G93F, F96P, I97A

Changes are numbered by the printed parent chain.

In the first test the target is T1, recombinant gD:human TAT226 fusion protein expressed on HCT116#9-4 cells (herpes simplex virus type 1; human, UniProt Q8N2G4 23-141).
T1 sequence: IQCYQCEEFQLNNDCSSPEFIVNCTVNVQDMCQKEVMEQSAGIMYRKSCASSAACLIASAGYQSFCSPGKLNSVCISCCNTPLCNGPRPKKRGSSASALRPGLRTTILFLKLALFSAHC
Nature of the test: cell-based or functional assay.
In the case of B1, the “IC50, in vitro cell killing assay on HCT116#9-4 transfectants (CellTiter-Glo, 3 days)” value was approximately 50 pM.

Consider B2, for which the “IC50, in vitro cell killing assay on HCT116#9-4 transfectants (CellTiter-Glo, 3 days)” value was approximately 50 pM.

For the next test, the target named is T2, human TAT226 expressed on the surface of OVCAR3 cells (human, UniProt Q8N2G4 21-117).
T2 sequence: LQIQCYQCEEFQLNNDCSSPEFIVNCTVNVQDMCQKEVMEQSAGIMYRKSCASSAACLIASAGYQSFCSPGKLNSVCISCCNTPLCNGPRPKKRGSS
Nature of the test: cell-based or functional assay.
Regarding B1, the “IC50, OVCAR3 in vitro cell killing assay (CellTiter-Glo, 5 days)” value (“IC50, OVCAR3 in vitro cell killing assay” for short) is approximately 5 pM.

For the molecule B3, the “IC50, OVCAR3 in vitro cell killing assay” value is approximately 200 pM.

With B4, the “IC50, OVCAR3 in vitro cell killing assay” value was approximately 200 pM.

In the case of B2, the “IC50, OVCAR3 in vitro cell killing assay” value was approximately 5 pM.

Another test has as its target T3, recombinant TAT226-His fusion protein (human, UniProt Q8N2G4 21-115).
T3 construct: also called recombinant antigen; not shown: C-terminal polyhistidine tag
T3 sequence: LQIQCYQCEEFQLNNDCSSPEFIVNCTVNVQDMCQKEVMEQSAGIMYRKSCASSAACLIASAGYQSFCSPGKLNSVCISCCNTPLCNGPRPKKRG
Briefly: SPR, BIACORE 3000, IgG immobilised on CM5 chip, TAT226-His injected (0.7-500 nM), 25 C. The procedure: The binding affinity of YWO.49, YWO.49.B7, YWO.49.C9, YWO.49.H2, and YWO.49.H6 for recombinant antigen was determined by surface plasmon resonance measurement using a BIACORE® 3000 system (Biacore, Inc., Piscataway, N.J.). Briefly, carboxymethylated dextran biosensor chips (CM5, Biacore Inc.) were activated with N-ethyl-N′-(3-dimethylaminopropyl)-carbodiimide hydrochloride (EDC) and N-hydroxysuccinimide (NHS) according to the supplier's instructions. Anti-TAT226 antibody was diluted to 5 ug/ml with 10 mM sodium acetate, pH 4.8, before injection at a flow rate of 5 μl/minute to achieve approximately 500 response units (RU) of coupled antibody. Next, 1M ethanolamine was injected to block unreacted groups. For kinetics measurements, two-fold serial dilutions of TAT226-His (0.7 nM to 500 nM) were injected in PBS with 0.05% Tween 20 at 25° C. at a flow rate of 25 μl/min Association rates (kₒₙ) and dissociation rates (koff) were calculated using a simple one-to-one Langmuir binding model (BIAevaluation Software version 3.2). The equilibrium dissociation constant (Kd) was calculated as the ratio koff/kₒₙ.
(In general: SPR reads the build-up and loss of mass on a sensor chip optically.)
For B5, the Kd was determined as 50 pM.

Take B6: the Kd was determined as 47200 pM.

As for B7, the Kd came to 230 pM.

For the molecule B8, the Kd is less than 30 pM.

For B9, the Kd is less than 180 pM.

In the next test the target is T2, human TAT226 expressed on the surface …. Briefly: competition of iodinated antibody with unlabeled antibody on OVCAR3 cells, Scatchard analysis. The procedure: The binding affinity of YWO.49.H2 and YWO.49.H6 for TAT226 expressed on the surface of OVCAR3 cells was examined using a competition assay. Briefly, labeled (iodinated) YWO.49.H2 or YWO.49.H6 was allowed to bind to OVCAR3 cells in the presence of unlabeled antibody. Binding affinity of the antibodies was determined in accordance with the Scatchard analysis methodology initially described in Munson et al., Anal. Biochem. 107:220 (1980).
In the case of B5, the affinity, expressed as Kd, was 404 pM.

B7 returned a Kd of 348 pM.

Broadly, the Kd is the equilibrium constant for the complex coming apart.

The values above are taken from patent publication US20120100159A1 (Genentech, published 2012).
